This note sets out measurements from patent US20200140562A1 (Innovent, published 2020).

For assay [1], the target named is T1, human OX40 on cells (CHO-hOX40, 293HEK-hOX40, Jurkat-hOX40, activated primary CD4+ T cells) (human, UniProt P43489 29-277).
T1 construct: whole, on cells; The cell type is told in each assay; also called CHO-OX40
T1 sequence (looked up): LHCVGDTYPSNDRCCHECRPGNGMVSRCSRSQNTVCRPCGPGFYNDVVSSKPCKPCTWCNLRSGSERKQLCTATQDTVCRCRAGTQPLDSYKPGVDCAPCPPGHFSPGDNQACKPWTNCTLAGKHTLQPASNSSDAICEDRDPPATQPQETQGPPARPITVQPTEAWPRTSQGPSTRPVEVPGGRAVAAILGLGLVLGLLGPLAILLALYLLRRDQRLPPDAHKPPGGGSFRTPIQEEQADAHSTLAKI
The assay can be described thus: flow cytometry, CHO-hOX40, 100 nM. Background: In flow cytometry, cells or beads pass a laser one at a time.

Assay [2] addresses T2, cyno OX40_Fc (Acro Biosystems) (cyno).
T2 construct: Bought
As to the kind of experiment: BLI, IgG1 on tip, cyno OX40-Fc 100 nM, avid. On the technique in general: BLI is a label-free optical method that tracks binding on a fibre tip over time.

The target of assay [3] is T1, human OX40 on cells (CHO-hOX40, …). As to the kind of experiment: flow cytometry, MFI on CHO-hOX40 over wild-type CHO.
In assay [4] the target is T3, mouse OX40Fc (Acro Biosystems) (mouse, UniProt P47741 20-211, limits assumed).
T3 construct: Bought; not shown: Fc
T3 sequence (looked up): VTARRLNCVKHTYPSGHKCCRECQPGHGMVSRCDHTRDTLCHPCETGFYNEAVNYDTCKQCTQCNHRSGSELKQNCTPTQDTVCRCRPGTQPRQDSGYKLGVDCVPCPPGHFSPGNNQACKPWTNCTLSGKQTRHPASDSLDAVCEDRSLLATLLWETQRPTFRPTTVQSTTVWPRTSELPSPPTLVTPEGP
As to the kind of experiment: BLI, IgG1 on tip, mouse OX40-Fc in solution.

Assay [5] concerns the target T4, human OX40_Fc (R&D Systems) (human, UniProt P43489 29-216).
T4 construct: Bought
As to the kind of experiment: BLI, IgG1 on tip, hOX40-Fc 50 nM, avid.

Assay [6] deals with T1, human OX40 on cells (CHO-hOX40, …). The assay can be described thus: cell-based or functional assay.

B1: ADI-25652, IgG1 format (antibody, V domains shown)
VH: QVQLVESGGGVVQPGRSLRLSCAASGFTFVSYNMHWVRQAPGKGLEWVAVIAYDGSVKYYADSVKGRFTISRDNSKNTLYLQMNSLRAEDTAVYYCARGRPWYSETGTSAFDIWGQGTMVTVSS
VL: DIQMTQSPSSLSASVGDRVTITCQASQDISNYLNWYQQKPGKAPKLLIYDASNLETGVPSRFSGSGSGTDFTFTISSLQPEDIATYYCQQSDHYPTFGGGTKVEIKR
notes: Made in yeast
Turning to B1, in assay [1], the “CHO-OX40 binding intensity (MFI)” value is 253000 MFI. The Kd in assay [2] was determined as 2.11 nM; in assay [5] it was 0.261 nM. The Fold difference in assay [3] is 2400 fold. The binding result in assay [4] is listed as “no binding (tested: 100 nM)”.

B2: ADI-25651, IgG1 format (antibody, V domains shown)
VH: QVQLVESGGGVVQPGRSLRLSCAASGFTFSSRNMHWVRQAPGKGLEWVAVIAYDGSLKYYADSVKGRFTISRDNSKNTLYLQMNSLRAEDTAVYYCARGRPWYSETGTSAFDIWGQGTMVTVSS
VL: DIQMTQSPSSLSASVGDRVTITCQASQDISNYLNWYQQKPGKAPKLLIYDASNLETGVPSRFSGSGSGTDFTFTISSLQPEDIATYYCQQSDHYPTFGGGTKVEIKR
notes: Made in yeast
Take B2: the “CHO-OX40 binding intensity (MFI)” value in assay [1] came out at 253000 MFI. Moreover, the dissociation constant (Kd) stood at 1.37 nM in assay [2] and 0.268 nM in assay [5]. This molecule yielded a Fold difference in assay [3] of 2340 fold. In addition, in assay [4], the binding result is given as “no binding (tested: 100 nM)”.

B3: ADI-25654, IgG1 format (antibody, V domains shown)
VH: QVQLVESGGGVVQPGRSLRLSCAASGFTFRSYDMHWVRQAPGKGLEWVAYIAYDGSNKYYADSVKGRFTISRDNSKNTLYLQMNSLRAEDTAVYYCARGRPWYSETGTSAFDIWGQGTMVTVSS
VL: DIQMTQSPSSLSASVGDRVTITCQASQDISNYLNWYQQKPGKAPKLLIYDASNLETGVPSRFSGSGSGTDFTFTISSLQPEDIATYYCQQSDHYPTFGGGTKVEIKR
notes: Made in yeast or CHO cells; also called ADI-25654-g1
With B3, the “EC50, NFkB-luciferase reporter in Jurkat-hOX40 mixed with Raji cells” value in assay [6] is 0.0282 nM. Further, the “CHO-OX40 binding intensity (MFI)” value in assay [1] worked out at 252000 MFI. Besides, the equilibrium dissociation constant (Kd) in assay [2] came to 1.53 nM; in assay [5], 0.283 nM. The Fold difference in assay [3] worked out at 2260 fold. Further, the binding result in assay [4] was “no binding (tested: 100 nM)”.

B4: ADI-25650, IgG1 format (antibody, V domains shown)
VH: QVQLVESGGGVVQPGRSLRLSCAASGFTFSVYNMHWVRQAPGKGLEWVAVIAYDGSAKYYADSVKGRFTISRDNSKNTLYLQMNSLRAEDTAVYYCARGRPWYSETGTSAFDIWGQGTMVTVSS
VL: DIQMTQSPSSLSASVGDRVTITCQASQDISNYLNWYQQKPGKAPKLLIYDASNLETGVPSRFSGSGSGTDFTFTISSLQPEDIATYYCQQSDHYPTFGGGTKVEIKR
notes: Made in yeast
Turning to B4, the “CHO-OX40 binding intensity (MFI)” value in assay [1] stood at 252000 MFI. Also, the results for the Kd in assay [2] and in assay [5] were 1.6 nM and 0.23 nM, respectively. The Fold difference in assay [3] stood at 2040 fold. Also, the binding result in assay [4] was “no binding (tested: 100 nM)”.

B5: ADI-25653, IgG1 format (antibody, V domains shown)
VH: QVQLVESGGGVVQPGRSLRLSCAASGFTFVSYNMHWVRQAPGKGLEWVAVIMYDGSAKYYADSVKGRFTISRDNSKNTLYLQMNSLRAEDTAVYYCARGRPWYSETGTSAFDIWGQGTMVTVSS
VL: DIQMTQSPSSLSASVGDRVTITCQASQDISNYLNWYQQKPGKAPKLLIYDASNLETGVPSRFSGSGSGTDFTFTISSLQPEDIATYYCQQSDHYPTFGGGTKVEIKR
notes: Made in yeast
Take B5: the “CHO-OX40 binding intensity (MFI)” value in assay [1] came out at 252000 MFI. Besides, the Kd in assay [2] came out at 1.15 nM; in assay [5], 0.223 nM. Further, the Fold difference in assay [3] was 2320 fold. Further, the binding result in assay [4] was “no binding (tested: 100 nM)”.

B6: ADI-23515, IgG2 format (antibody)
heavy: QVQLQESGPGLVKPSQTLSLTCTVSGGSIRSGAYYWSWIRQHPGKGLEWIGYIYYDGQTYYNPSLKSRVTISVDTSKNQFSLKLSSVTAADTAVYYCARDVGYPHYYGMDVWGQGTTVTVSSASTKGPSVFPLAPCSRSTSESTAALGCLVKDYFPEPVTVSWNSGALTSGVHTFPAVLQSSGLYSLSSVVTVPSSNFGTQTYTCNVDHKPSNTKVDKTVERKCCVECPPCPAPPVAGPSVFLFPPKPKDTLMISRTPEVTCVVVDVSHEDPEVQFNWYVDGVEVHNAKTKPREEQFNSTFRVVSVLTVVHQDWLNGKEYKCKVSNKGLPAPIEKTISKTKGQPREPQVYTLPPSREEMTKNQVSLTCLVKGFYPSDIAVEWESNGQPENNYKTTPPMLDSDGSFFLYSKLTVDKSRWQQGNVFSCSVMHEALHNHYTQKSLSLSPG
light: EIVLTQSPGTLSLSPGERATLSCRASQSVSSSYLAWYQQKPGQAPRLLIYGASSRATGIPDRFSGSGSGTDFTLTISRLEPEDFAVYYCQQSERSPFTFGGGTKVEIKRTVAAPSVFIFPPSDEQLKSGTASVVCLLNNFYPREAKVQWKVDNALQSGNSQESVTEQDSKDSTYSLSSTLTLSKADYEKHKVYACEVTHQGLSSPVTKSFNRGEC
As for B6, in assay [6], the “EC50, NFkB-luciferase reporter in Jurkat-hOX40” value was determined as 0.39 nM.

In general, Kd refers to a measure of binding affinity in units of concentration.
